Assay results taken from US20040009511A1, “Identification of compounds which stimulate bone formation using a cell-based screening assay targeting BMP signaling” (priority 2002, published 2004).

Columns and labels:
[1] = tested on: 9×SBE-6×OSE2-OC-luc reporter construct in 2T3 C-17 cells; assay: Luciferase assay, 9×SBE-6×OSE2-OC-luc reporter stably transfected in 2T3 clone C-17; format: cell-based; set-up: Luciferase Activity: unit not given here; settings: for Effect on luciferase activity of the reporter construct: 2T3 C-17 cells
Procedure: (§1) An oligonucleotide containing 9 copies of Smad1 response element (9×SBE) and 6 copies of Cbfa1 response element (6×OSE2) was synthesized in the DNA laboratory at University of Texas Health Science Center at San Antonio. The osteocalcin basal promoter (OC, −155/+1) was amplified by Polymerase Chain Reaction (PCR) using mouse genomic DNA as a template and cloned into pGL3 vector. An 9×SBE-6×OSE2 oligonucleotide was cloned upstream of osteocalcin basal promoter.
(§2) C2C12 and 2T3 cells were plated in 6-well culture plates at densities of 4×10^5 and 2×10^5 cells/well and cultured with DMEM or α minimal essential medium (α MEM) supplemented with 10% FCS for 24 hours. A 9×SBE-6×OSE2-OC-luc-reporter construct (2 μg/well) was co-transfected with pcDNA3 empty vector (0.2 mg/well) in C2C12 and 2T3 cells using lipofactamine plus reagents (Gibco/BRL). Forty eight hours later, G418 (200 μg/ml) was added to the culture plates. Four weeks after G418 selection, the G418 resistant cells were plated in 96-well plates at the density of 1 cell/well and cloned by limiting dilution method.
(§3) C2C12 and 2T3 cells, in which 9×SBE-6×OSE2-OC-luc-reporter construct was stably transfected, were plated in 96-well culture plates at densities of 1×10^4 and 0.5×10^4 cells/well and cultured for 24 hours. The medium was changed to fresh medium supplemented with 2% FCS and different growth factors or hormone were added to culture medium for 24 hours or different compounds were added to culture medium for 2, 6, 12, 24 and 48 hours. The cell lysates were extracted and luciferase activities were determined by luciferase assay kit (Promega, Madison, Wis.) using a Luminometer.
(§4) At the end of the incubation, the cell lysates were extracted using lysis buffer and luciferase activities were measured using a luciferase assay kit (Promega).

[2] = tested on: BMP production in MG-63 cells; assay: Conditioned medium of treated MG-63 cells tested on 2T3 C-17 reporter cells; format: cell-based, human; settings: MG-63 treated 1 and 5 hours, washed, 24 hour CM; 2T3 C-17 treated with CM 48 hours
Procedure: 2T3 C-17 cells were then treated with said CM for 48 hours.

[3] = tested on: 9×SBE-6×OSE2-OC-luc reporter construct; assay: Luciferase assay, 9×SBE-6×OSE2-OC-luc reporter construct, cells not specified; format: cell-based; settings: stimulation of luciferase activity; stated for C2C12 C-10-62 and 2T3 C-17 without distinction
Text: as §1, §3
Further, a reporter construct which contains multiple copies of both Smad1 (SBE) and Cbfa1 (OSE2) response elements (9×SBE-6×OSE2-OC-luc) was made.

[4] = tested on: 9×SBE-6×OSE2-OC-luc reporter construct in C2C12 C-10-62 cells; assay: Luciferase assay, 9×SBE-6×OSE2-OC-luc reporter stably transfected in C2C12 clone C-10-62; format: cell-based; settings: 24 hours
Procedure: as §1, §2, §3, §4

[5] = Epoxomicin 0.0156 μM, cell type not given
[6] = Epoxomicin 0.0625 μM, cell type not given
[7] = Epoxomicin 0.125 μM, cell type not given
[8] = Epoxomicin 0.25 μM, cell type not given
[9] = Epoxomicin 0.5 μM, cell type not given
[10] = Epoxomicin 1 μM, cell type not given
[11] = BMP-4 0.049 ng/ml, 24 hours, 2T3 clone 17
[12] = BMP-4 0.098 ng/ml, 24 hours, 2T3 clone 17
[13] = BMP-4 0.195 ng/ml, 24 hours, 2T3 clone 17
[14] = BMP-4 0.39 ng/ml, 24 hours, 2T3 clone 17
[15] = BMP-4 0.78 ng/ml, 24 hours, 2T3 clone 17
[16] = BMP-4 1.56 ng/ml, 24 hours, 2T3 clone 17
[17] = BMP-4 3.125 ng/ml, 24 hours, 2T3 clone 17
[18] = BMP-4 6.25 ng/ml, 24 hours, 2T3 clone 17
[19] = BMP-4 12.5 ng/ml, 24 hours, 2T3 clone 17
[20] = BMP-4 25 ng/ml, 24 hours, 2T3 clone 17
[21] = BMP-4 50 ng/ml, 24 hours, 2T3 clone 17
[22] = BMP-4 100 ng/ml, 24 hours, 2T3 clone 17
[23] = BMP-7 1.95 ng/ml, 24 hours, 2T3 clone 17
[24] = BMP-7 3.91 ng/ml, 24 hours, 2T3 clone 17
[25] = BMP-7 7.81 ng/ml, 24 hours, 2T3 clone 17
[26] = BMP-7 15.625 ng/ml, 24 hours, 2T3 clone 17
[27] = BMP-7 31.25 ng/ml, 24 hours, 2T3 clone 17
[28] = BMP-7 62.5 ng/ml, 24 hours, 2T3 clone 17
[29] = BMP-7 125 ng/ml, 24 hours, 2T3 clone 17
[30] = BMP-7 250 ng/ml, 24 hours, 2T3 clone 17
[31] = BMP-7 500 ng/ml, 24 hours, 2T3 clone 17
[32] = BMP-7 1000 ng/ml, 24 hours, 2T3 clone 17

Molecule: CC[C@H](C)[C@H](NC(=O)[C@H]([C@@H](C)CC)N(C)C(C)=O)C(=O)N[C@H](C(=O)N[C@@H](CC(C)C)C(=O)[C@@]1(C)CO1)[C@@H](C)O [Epoxomicin, epoxomicin, reference compound]
- Luciferase Activity [1, 5]: 0.041
- Luciferase Activity (fold increase) [1, 5]: 1.0 fold
- Luciferase Activity [1, 6]: 0.064
- Luciferase Activity (fold increase) [1, 6]: 1.6 fold
- Luciferase Activity [1, 7]: 0.098
- Luciferase Activity (fold increase) [1, 7]: 2.4 fold
- Luciferase Activity [1, 8]: 0.142
- Luciferase Activity (fold increase) [1, 8]: 3.5 fold
- Luciferase Activity [1, 9]: 0.153
- Luciferase Activity (fold increase) [1, 9]: 3.7 fold
- Luciferase Activity [1, 10]: 0.120
- Luciferase Activity (fold increase) [1, 10]: 2.9 fold
- Effect of 24 hour conditioned medium of treated MG-63 cells on the reporter construct [2]: CM stimulated the reporter construct in a concentration-dependent manner

B1: BMP-4: Bone morphogenetic protein 4 (protein, UniProt P12644 293-408, looked up)
Bone morphogenetic protein 4: SPKHHSQRARKKNKNCRRHSLYVDFSDVGWNDWIVAPPGYQAFYCHGDCPFPLADHLNSTNHAIVQTLVNSVNSSIPKACCVPTELSAISMLYLDEYDKVVLKNYQEMVVEGCGCR
- Minimal effective dose [3]: 0.1 to 0.2 ng/mL
- Effect on luciferase activity of the reporter construct [4]: stimulated luciferase activity in a dose-dependent manner
- Effect on luciferase activity of the reporter construct ([1]; 24 hours): stimulated luciferase activity in a dose-dependent manner
- Luciferase Activity [1, 11]: 0.0745
- Luciferase Activity (fold increase) [1, 11]: 1.6 fold
- Luciferase Activity [1, 12]: 0.111
- Luciferase Activity (fold increase) [1, 12]: 2.3 fold
- Luciferase Activity [1, 13]: 0.141
- Luciferase Activity (fold increase) [1, 13]: 2.9 fold
- Luciferase Activity [1, 14]: 0.384
- Luciferase Activity (fold increase) [1, 14]: 8.0 fold
- Luciferase Activity [1, 15]: 0.597
- Luciferase Activity (fold increase) [1, 15]: 12.4 fold
- Luciferase Activity [1, 16]: 0.821
- Luciferase Activity (fold increase) [1, 16]: 17.1 fold
- Luciferase Activity [1, 17]: 1.064
- Luciferase Activity (fold increase) [1, 17]: 22.2 fold
- Luciferase Activity [1, 18]: 1.256
- Luciferase Activity (fold increase) [1, 18]: 26.2 fold
- Luciferase Activity [1, 19]: 1.534
- Luciferase Activity (fold increase) [1, 19]: 32.0 fold
- Luciferase Activity [1, 20]: 1.576
- Luciferase Activity (fold increase) [1, 20]: 32.8 fold
- Luciferase Activity [1, 21]: 1.887
- Luciferase Activity (fold increase) [1, 21]: 39.3 fold
- Luciferase Activity [1, 22]: 2.166
- Luciferase Activity (fold increase) [1, 22]: 45.1 fold

B2: BMP-7: Bone morphogenetic protein 7 (protein, UniProt P18075 293-431, looked up)
Bone morphogenetic protein 7: STGSKQRSQNRSKTPKNQEALRMANVAENSSSDQRQACKKHELYVSFRDLGWQDWIIAPEGYAAYYCEGECAFPLNSYMNATNHAIVQTLVHFINPETVPKPCCAPTQLNAISVLYFDDSSNVILKKYRNMVVRACGCH
- Minimal effective dose [3]: 15 to 30 ng/mL
- Effect on luciferase activity of the reporter construct [4]: stimulated luciferase activity in a dose-dependent manner
- Effect on luciferase activity of the reporter construct ([1]; 24 hours): stimulated luciferase activity in a dose-dependent manner
- Luciferase Activity [1, 23]: 0.076
- Luciferase Activity (fold increase) [1, 23]: 1.1 fold
- Luciferase Activity [1, 24]: 0.090
- Luciferase Activity (fold increase) [1, 24]: 1.3 fold
- Luciferase Activity [1, 25]: 0.108
- Luciferase Activity (fold increase) [1, 25]: 1.6 fold
- Luciferase Activity [1, 26]: 0.148
- Luciferase Activity (fold increase) [1, 26]: 2.2 fold
- Luciferase Activity [1, 27]: 0.216
- Luciferase Activity (fold increase) [1, 27]: 3.2 fold
- Luciferase Activity [1, 28]: 0.374
- Luciferase Activity (fold increase) [1, 28]: 5.6 fold
- Luciferase Activity [1, 29]: 0.813
- Luciferase Activity (fold increase) [1, 29]: 12.1 fold
- Luciferase Activity [1, 30]: 1.425
- Luciferase Activity (fold increase) [1, 30]: 21.3 fold
- Luciferase Activity [1, 31]: 2.224
- Luciferase Activity (fold increase) [1, 31]: 33.2 fold
- Luciferase Activity [1, 32]: 3.404
- Luciferase Activity (fold increase) [1, 32]: 50.8 fold
